{
  "source": "paper PMC6021402",
  "about": "“Dissecting ribosomal particles throughout the kingdoms of life using advanced hybrid mass spectrometry methods” (Nature Communications, 2018)",
  "binders": {"B1": {"name": "chloroplastic ribosomal protein L12 from S. oleracea (natural protein, S. oleracea (spinach), UniProt P02398 57-189, looked up)", "chain": "AVEAPEKIEQLGTQLSGLTLEEARVLVDWLQDKLGVSAASFAPAAAVAAPGAPADAAPAVEEKTEFDVSIDEVPSNARISVIKAVRALTSLGLKEAKELIEGLPKKLKEGVSKDDAEDAKKQLEDAGAKVSIV", "notes": "50S ribosomal protein L12, chloroplastic, Spinacia oleracea; Six copies in each stalk complex; also called L7/L12; source: endogenous, in chloroplastic 70S ribosomes purified from spinach leaves (sucrose cushion, sucrose gradient)"}},
  "key": {"[1]": {"molecular_target": "chloroplastic ribosomal protein L10 from S. oleracea (S. oleracea (spinach))", "assay": "native MS; chloroplastic 70S ribosomes introduced into a QE-UHMR mass spectrometer; intact stalk complexes released by in-source trapping activation and their mass measured; quadrupole isolation and HCD fragmentation ejected a single L12 (pseudo-MS3)"}, "[2]": {"molecular_target": "the molecule itself", "assay": "native MS; chloroplastic 70S ribosomes introduced into a QE-UHMR mass spectrometer; intact stalk complexes released by in-source trapping activation and their mass measured; quadrupole isolation and HCD fragmentation ejected a single L12 (pseudo-MS3)"}},
  "data": [
    {"binder": "B1", "values": [
      {"measurement": "stoichiometry N", "setting": "[1]", "value": 6, "unit": "L12 per L10"},
      {"measurement": "binding result", "setting": "[2]", "value": "binds"}
    ]}
  ]
}
